Measured values from paper PMC9388135 (Proceedings of the National Academy of Sciences of the …, 2022).
Changes are numbered by the printed parent chain. Names and notes keep the numbering of the source.

B1: KicGAS^9-104 (domain or fragment, UniProt Q2HR80 9-104, looked up)
chain: KKDLTMEDLTAKISQLTVENRELRKALGSTADPRDRPLTATEKEAQLTATVGALSAAAAKKIEARVRTIFSKVVTQKQVDDALKGLSLRIDVCMSD
B2: KicGAS L17R (natural protein, UniProt Q2HR80 1-131, looked up)
chain: MAAPRGRPKKDLTMEDRTAKISQLTVENRELRKALGSTADPRDRPLTATEKEAQLTATVGALSAAAAKKIEARVRTIFSKVVTQKQVDDALKGLSLRIDVCMSDGGTAKPPPGANNRRRRGASTTRAGVDD
B3: KicGAS L35A (natural protein, UniProt Q2HR80 1-131, looked up)
chain: B2 chain with R17L, L35A
B4: KicGAS P41S/P45I (natural protein, UniProt Q2HR80 1-131, looked up)
chain: B2 chain with R17L, P41S, P45I
B5: KicGAS L35R (natural protein, UniProt Q2HR80 1-131, looked up)
chain: B2 chain with R17L, L35R

Biological target: the molecule itself
Test: SEC

Protein	binding result	stoichiometry N
B1	binds	
B2		2
B3	binds	
B4	binds	
B5	binds	
